Values of other authors, collected in US10744082B2, “Compositions for treatment of xerostomia and for tooth treatment” (3 IN 1 DENTAL PLLC, priority 2013, dated 2020).

System: lean meat
Details: usual grade of papain

B1: Papain (protein, UniProt P00784 134-345, looked up)
Papain: IPEYVDWRQKGAVTPVKNQGSCGSCWAFSAVVTIEGIIKIRTGNLNEYSEQELLDCDRRSYGCNGGYPWSALQLVAQYGIHYRNTYPYEGVQRYCRSREKGPYAAKTDGVRQVQPYNEGALLYSIANQPVSVVLEAAGKDFQLYRGGIFVGPCGNKVDHAVAAVGYGPNYILIKNSWGTGWGENGYIRIKRGTGNSYGVCGLYTSSFYPVKN
notes: Protease enzyme; white or grayish-white, slightly hygroscopic powder, designated USP
potency: weight of lean meat digested: ~35 times its weight
